Measured values reported in patent publication US20240067721A1 (UNIVERSITY OF BIRMINGHAM, published 2024).

T1: GPVI on human washed platelets (human, UniProt Q9HCN6 21-339)
T1 construct: whole, on cells; also called platelet GPVI
T1 sequence (looked up): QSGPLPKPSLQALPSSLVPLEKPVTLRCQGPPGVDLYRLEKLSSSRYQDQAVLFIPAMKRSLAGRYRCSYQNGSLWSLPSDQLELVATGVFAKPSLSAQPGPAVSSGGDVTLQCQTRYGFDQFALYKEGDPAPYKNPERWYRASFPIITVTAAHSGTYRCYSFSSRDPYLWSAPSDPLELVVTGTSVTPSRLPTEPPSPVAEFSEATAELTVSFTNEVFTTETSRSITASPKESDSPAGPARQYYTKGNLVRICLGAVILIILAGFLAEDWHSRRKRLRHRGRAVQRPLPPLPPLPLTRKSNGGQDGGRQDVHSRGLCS

T2: recombinant GPVI-Fc (dimeric; D1 and D2 domains of GPVI fused to the Fc domain from IgG) (human, UniProt Q9HCN6 22-203)
T2 construct: range 22-203; also called GPVI-Fcγ; dimeric GPVI; not shown: Factor Xa cleavable junction and Fc domain from IgG (Sigplg+ vector)
T2 sequence (looked up): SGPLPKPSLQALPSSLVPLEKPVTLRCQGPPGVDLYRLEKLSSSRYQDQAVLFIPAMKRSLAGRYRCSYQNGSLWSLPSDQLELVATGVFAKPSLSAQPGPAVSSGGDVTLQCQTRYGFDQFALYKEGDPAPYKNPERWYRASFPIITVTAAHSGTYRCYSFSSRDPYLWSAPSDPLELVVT

B1: Nb28 fluorescently labelled with AlexaFluor 647 (Nb28-AF647) (VHH)
VHH: QVQLQESGGGLVQAGDSLRLSCAASGTYSMGWFRQAPGKEREFVAAISWSGGRTNYADSVKGRFTISRDNAKNTVYLQMNSLKPEDTAVYYCSAAIYDNVSSRIGSYTYWGQGTQVTVSS
modifications: AlexaFluor 647 dye on free amino groups (NHS-ester labelling)
notes: also called labelled Nb28
B2: un-tagged Nb2 (thrombin-cleaved nanobody 2) (VHH)
VHH: QVQLQESGGGLVQPGGSLRLSCAAAGFTFDYYAIAWFRQAPGKEREGVSCISSSDGTTYYADSVKGRFTISKDNAKNTMYLQMNSLKPEDTAVYYCATSPLYSTNDRCISEDYDYWGQGTQVTVSS
notes: also called un-tagged nanobody 2

Key:
[1] = molecular target: T1, GPVI on human washed platelets; assay: flow cytometry on washed platelets, 100 nM Nb28-AF647, with or without 500 nM Nb2
Method: a) Washed platelets were incubated in an aggregometer at 37° C. and 1200 rpm in the presence of Nb28 or PBS control prior to stimulation with 10 μg/ml Horm collagen and aggregation traces captured. Nb28 had no effect on aggregation. b) Thrombin inhibited whole blood was preincubated with either vehicle (PBS) or 500 nM of unlabelled Nb28 and then flowed over fibrillar collagen I utilising the Maastricht flow chamber at 1000/s. None of the five investigated parameters of thrombus formation or platelet activation were affected by Nb28. Each data point represents one donor (n=4), unpaired non-parametric t-test was utilized to test for significance.
Washed platelets were preincubated with 500 nM Nb2 or PBS vehicle control for 10 min, followed by addition of 100 nM Nb28-AF647 and immediate fixation. 50,000 events were acquired and Nb28-AF647 signal (FL4) measured with an Accuri C6 flow cytometer (BD) and data processed with the BD Accuri C6 Software.

[2] = molecular target: T2, recombinant GPVI-Fc (dimeric; D1 and D2 …); assay: displacement of GPVI-Fc (100 nM) from collagen surface; Nb2 stored at 4 °C, non-filtered, day 0
Method: (§1) Freshly made un-tagged nanobody 2 (4.2 mg/ml in PBS) was stored at 4° C. over a period of 72 hours. Samples were collected at 0, 24, 48 and 72 hours for ELISA and nanodrop analysis. 1 ml of Nb2 was also filtered using a Whatman 0.2 um syringe filter, and 50 μL was snap-frozen and thawed to determine the effects of both syringe filtering and freeze-thawing on nanobody function. The freeze-thawed sample was only tested between 0-48 hours after thawing. ELISA displacement assays were performed on each sample as described in ‘Solid-phase binding assay’. Nb2 concentrations were determined at each time point by measuring absorbance a 280 nm using a nanodrop ND-1000 spectrophotometer.
(§2) Nb2 stability at 4° C. was tested by comparing the ability for nb2 to displace GPVI-Fc binding to a collagen surface after 0-, 24-, 48- and 72-hours storage at 4° C. (FIG. 8). Nb2 was stored in PBS with no added preservatives. In addition, samples of nb2 that were freeze-thawed and an additional sample that had been filtered were also tested. […] There was an observed reduction in protein concentration of approximately 3% when filtering but it is not abnormal for small losses in protein yield when filtering.

[3] = molecular target: T2, recombinant GPVI-Fc (dimeric; D1 and D2 …); assay: displacement of GPVI-Fc (100 nM) from collagen surface; Nb2 stored at 4 °C, non-filtered, day 1
Method: as §1, §2

[4] = molecular target: T2, recombinant GPVI-Fc (dimeric; D1 and D2 …); assay: displacement of GPVI-Fc (100 nM) from collagen surface; Nb2 syringe-filtered, day 3
Method: as §1, §2

[5] = molecular target: T2, recombinant GPVI-Fc (dimeric; D1 and D2 …); assay: displacement of GPVI-Fc (100 nM) from collagen surface; Nb2 syringe-filtered, day 2
Method: as §1, §2

[6] = molecular target: T2, recombinant GPVI-Fc (dimeric; D1 and D2 …); assay: displacement of GPVI-Fc (100 nM) from collagen surface; Nb2 freeze-thawed, day 1
Method: as §1, §2

[7] = molecular target: T2, recombinant GPVI-Fc (dimeric; D1 and D2 …); assay: displacement of GPVI-Fc (100 nM) from collagen surface; Nb2 freeze-thawed, day 0
Method: as §1, §2

[8] = molecular target: T2, recombinant GPVI-Fc (dimeric; D1 and D2 …); assay: displacement of GPVI-Fc (100 nM) from collagen surface; Nb2 freeze-thawed, day 2
Method: as §1, §2

[9] = molecular target: T2, recombinant GPVI-Fc (dimeric; D1 and D2 …); assay: displacement of GPVI-Fc (100 nM) from collagen surface; Nb2 syringe-filtered, day 1
Method: as §1, §2

[10] = molecular target: T2, recombinant GPVI-Fc (dimeric; D1 and D2 …); assay: displacement of GPVI-Fc (100 nM) from collagen surface; Nb2 syringe-filtered, day 0
Method: as §1, §2

[11] = molecular target: T2, recombinant GPVI-Fc (dimeric; D1 and D2 …); assay: displacement of GPVI-Fc (100 nM) from collagen surface; Nb2 stored at 4 °C, non-filtered, day 2
Method: as §1, §2

[12] = molecular target: T2, recombinant GPVI-Fc (dimeric; D1 and D2 …); assay: displacement of GPVI-Fc (100 nM) from collagen surface; Nb2 stored at 4 °C, non-filtered, day 3
Method: as §1, §2

Binder | binding result [1] | IC50 [2] [µM] | IC50 [3] [µM] | IC50 [4] [µM] | IC50 [5] [µM] | IC50 [6] [µM] | IC50 [7] [µM] | IC50 [8] [µM] | IC50 [9] [µM] | IC50 [10] [µM] | IC50 [11] [µM] | IC50 [12] [µM]
B1 | binds |  |  |  |  |  |  |  |  |  |  | 
B2 |  | 0.037 | 0.0544 | 0.0371 | 0.0352 | 0.0298 | 0.0465 | 0.044 | 0.0403 | 0.0457 | 0.034 | 0.0324
